Where two headings read alike, the source gives them in different places.
Columns and labels:
[1] = target: Mpf2Ba1 activated by WCR gut fluid (N-terminally cleaved after Lys25) (Pseudomonas monteilii); test: cryo-EM structure
[2] = target: Mpf2Ba1 activated by WCR gut fluid (N-terminally cleaved after Lys25) (Pseudomonas monteilii); test: cryo-EM structure; remark: listed apart in the source

Mpf2Ba1 activated by WCR gut fluid (N-terminally cleaved after Lys25) (domain or fragment)
stoichiometry N [1]: 22 | stoichiometry N [2]: 21
